Results published in PMC4294675 (Molecular Biology of the Cell, 2015).

T1: Cdc12(FH1) (fission yeast, UniProt Q10059 740-972)
T1 sequence: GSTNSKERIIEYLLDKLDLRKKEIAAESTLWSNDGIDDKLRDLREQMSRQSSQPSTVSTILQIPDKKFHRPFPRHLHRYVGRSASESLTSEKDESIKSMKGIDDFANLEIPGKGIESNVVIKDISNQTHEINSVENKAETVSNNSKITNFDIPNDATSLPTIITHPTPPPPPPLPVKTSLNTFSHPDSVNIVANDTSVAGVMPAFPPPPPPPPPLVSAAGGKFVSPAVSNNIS


Columns and labels:
Assay in all cases: other fluorescence titration
[1] = target: ScPFY(9-Mut) (Saccharomyces cerevisiae) (UniProt P07274)
[2] = target: budding yeast profilin ScPFY (wild type) (Saccharomyces cerevisiae) (UniProt P07274)
[3] = target: fission yeast profilin SpPRF (S. pombe) (UniProt P39825)
Cdc12(FH1) = target: T1, Cdc12(FH1)

fission yeast profilin SpPRF (S. pombe), sequence (P39825 whole entry): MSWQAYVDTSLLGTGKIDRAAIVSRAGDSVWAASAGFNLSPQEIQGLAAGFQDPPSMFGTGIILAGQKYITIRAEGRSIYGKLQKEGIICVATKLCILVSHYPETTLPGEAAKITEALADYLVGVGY

Kd [1] [µM]	Kd [2] [µM]	Kd [3] [µM]	Kd (Cdc12(FH1)) [µM]	Molecule
195	224	59		poly-L-proline (peptide)
			24.7	budding yeast profilin ScPFY (wild type) (natural protein) MSWQAYTDNLIGTGKVDKAVIYSRAGDAVWATSGGLSLQPNEIGEIVQGFDNPAGLQSNGLHIQGQKFMLLRADDRSIYGRHDAEGVVCVRTKQTVIIAHYPPTVQAGEATKIVEQLADYLIGVQY
22.7				Cdc12(FH1) (domain or fragment) GSTNSKERIIEYLLDKLDLRKKEIAAESTLWSNDGIDDKLRDLREQMSRQSSQPSTVSTILQIPDKKFHRPFPRHLHRYVGRSASESLTSEKDESIKSMKGIDDFANLEIPGKGIESNVVIKDISNQTHEINSVENKAETVSNNSKITNFDIPNDATSLPTIITHPTPPPPPPLPVKTSLNTFSHPDSVNIVANDTSVAGVMPAFPPPPPPPPPLVSAAGGKFVSPAVSNNIS
